Experimental findings from PMC4880302, “A Chimeric Pneumovirus Fusion Protein Carrying Neutralizing Epitopes of Both MPV and RSV” (PLoS ONE, 2016) are described below.

The test concerns the target T1, wild-type HMPV F protein (soluble, secreted, with C-terminal GCNt trimerization domain) (human metapneumovirus, B2 strain).
T1 construct: fusion (F) glycoprotein of human metapneumovirus, B2 strain; soluble secreted form, GCNt joined in-frame with the heptad repeat of the C-terminal HRB; Preparations are mixtures of pre- and post-fusion forms; heating to 50°C for 30 min converts them to the post-fusion form (written as assays of their own); The trimer may rest in part on the GCNt domain; also called wt HMPV F; MPV F-GCNt; not …
The experiment in a line: SPR; BiOptix 404pi; F proteins captured on NiHC1000m chip through their C-terminal His tag to 120 RU; Fab injected at 300 to 0.14 nM, 100 ul/min; 10 mM HEPES pH 7.2, 150 mM NaCl, 0.005% Tween 20, 50 uM EDTA; simple Langmuir model. Particulars: both partners purified. On the technique in general: Surface plasmon resonance follows binding to a sensor surface in real time, without labels.

B1: motavizumab Fab (affinity-matured variant of palivizumab, anti-RSV F site II/A) (Fab, V domains shown)
VH: QVTLRESGPALVKPTQTLTLTCTFSGFSLSTAGMSVGWIRQPPGKALEWLADIWWDDKKHYNPSLKDRLTISKDTSKNQVVLKVTNMDPADTATYYCARDMIFNFYFDVWGQGTTVTVSS
VL: DIQMTQSPSTLSASVGDRVTITCSASSRVGYMHWYQQKPGKAPKLLIYDTSKLASGVPSRFSGSGSGTEFTLTISSLQPDDFATYYCFQGSGYPFTFGGGTKVEIK
notes: heavy chain of the Fab in the motavizumab:RSV peptide complex PDB 3IXT; light chain of the Fab in the motavizumab:RSV peptide complex PDB 3IXT; Variable genes cloned into pEE6.4 (heavy) and pEE12.4 (light) vectors (Lonza); constant parts of the Fab construct are not described; source: FreeStyle 293-F cells, co-transfected (PEI), purified from supernatant (protein G column)
In the case of B1, the binding result is listed as “no binding”.
